The values that follow come from patent US12679878B2, “CRF2 receptor agonists and their use in therapy” (SANOFI, priority 2020, dated 2026).

Assay [1] is described as follows: Effect on blood pressure, telemetry (Example 17). In kind it is in vivo. The conditions noted are these: Sprague Dawley rats, 0.1 mg/kg SC. The method in brief:
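Sprague Dawley rats with an aortic-catheter telemetry implant, recovered at least 2 weeks, given compound or vehicle at 0.1 mg/kg SC. HR, SBP, DBP and MBP recorded continuously for 48 h. Each 4-hour post-dose mean was compared with a 1-hour pre-dose basal mean.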

Assay [2] concerns the target human corticotropin-releasing factor 2α receptor (CRF2α receptor) (human), Q13324. In words: cell-based or functional assay.
Assay [3] addresses human corticotropin-releasing factor 2α (CRF2α receptor) (human), Q13324. In words: cell-based or functional assay.

Starred links: 1 amine or outer side, 2 acyl side, 3 side chain; linkers in the order of their positions; H or OH if unused. Non-standard residues stand in square brackets, D forms with d. Residues, ends and D or L forms follow the SMILES beside them. Groups on a side chain read outwards from the residue. No end group written: not given here. *: point of attachment. C18 diacid = O=C(O)CCCCCCCCCCCCCCCCC(=O)*; C16 diacid = O=C(O)CCCCCCCCCCCCCCC(=O)*; γGlu = O=C(O)[C@H](CCC(=O)[*:2])N[*:1]; AEEA = NCCOCCOCC(=O)O; Aib = CC(C)(N)C(=O)O

Sequence of human corticotropin-releasing factor 2α receptor (CRF2α receptor) (human), Q13324 (Q13324 20-411): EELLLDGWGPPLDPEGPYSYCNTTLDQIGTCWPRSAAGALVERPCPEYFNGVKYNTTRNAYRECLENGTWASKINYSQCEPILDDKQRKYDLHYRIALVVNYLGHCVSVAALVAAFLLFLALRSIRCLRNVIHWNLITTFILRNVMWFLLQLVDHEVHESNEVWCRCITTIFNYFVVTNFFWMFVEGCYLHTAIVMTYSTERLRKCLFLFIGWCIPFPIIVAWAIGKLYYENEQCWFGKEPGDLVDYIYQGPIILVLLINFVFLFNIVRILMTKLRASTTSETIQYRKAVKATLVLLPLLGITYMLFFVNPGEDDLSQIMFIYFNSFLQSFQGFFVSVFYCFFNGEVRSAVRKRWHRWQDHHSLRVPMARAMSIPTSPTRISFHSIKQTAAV
Sequence of human corticotropin-releasing factor 2α (CRF2α receptor) (human), Q13324 (Q13324 20-411): as above

On to `CC[C@H](C)[C@H](N)C(=O)N[C@H](C(=O)N[C@@H](CC(C)C)C(=O)N[C@@H](CO)C(=O)N[C@@H](CC(C)C)C(=O)N[C@@H](CC(=O)O)C(=O)N[C@H](C(=O)N1CCC[C@H]1C(=O)N[C@H](C(=O)N[C@@H](CCCCN)C(=O)N[C@@H](CC(C)C)C(=O)N[C@@H](CCCCNC(=O)COCCOCCNC(=O)COCCOCCNC(=O)CC[C@H](NC(=O)CCCCCCCCCCCCCCCCC(=O)O)C(=O)O)C(=O)N[C@@H](CCC(N)=O)C(=O)N[C@H](C(=O)N[C@@H](CC(C)C)C(=O)N[C@@H](CC(C)C)C(=O)N[C@@H](CCCCN)C(=O)N[C@@H](CCC(N)=O)C(=O)N[C@@H](CCC(=O)O)C(=O)N[C@@H](CCCNC(=N)N)C(=O)N[C@@H](CCC(N)=O)C(=O)N[C@@H](CCCCN)C(=O)N[C@@H](CCCCN)C(=O)NC(C)(C)C(=O)N[C@@H](CCCNC(=N)N)C(=O)N[C@@H](CCC(=O)O)C(=O)N[C@@H](CCC(N)=O)C(=O)N[C@@H](C)C(=O)N[C@@H](CCC(=O)O)C(=O)N[C@H](C(=O)N[C@@H](CC(N)=O)C(=O)N[C@@H](CCCCN)C(=O)N[C@@H](CCCNC(=N)N)C(=O)N[C@H](C(=O)N[C@@H](CC(C)C)C(=O)N[C@@H](CCC(=O)O)C(=O)N[C@@H](CCCNC(=N)N)C(=O)N[C@H](C(N)=O)C(C)C)[C@@H](C)CC)[C@@H](C)O)[C@@H](C)CC)[C@@H](C)CC)C(C)C)C(C)C` [SEQ ID NO: 152, IVLSLDVPIKLK*QILLKQERQKKAibREQAETNKRILERV-NH2] (H-IVLSLDVPIKLK([AEEA-AEEA-γGlu-C18 diacid])QILLKQERQKK[Aib]REQAETNKRILERV-NH2), for which the “Duration (h): last time point for which a significant effect on BP was still seen” value in assay [1] worked out at 20 h. Also, the “Effect on Systolic Pressure % change from baseline 8 h” value in assay [1] (8 h) was −8.6%. In assay [1] (24 h), the “Effect on Systolic Pressure % change from baseline 24 h” value is listed as −6.0%.

B1: peptide of SEQ ID NO: 195 (peptide)
peptide: IVLSLD[dV]PIGLK([γGlu-C16 diacid])QILLKQERQKK[Aib]RQQAETNKRILERV-NH2
modifications: N-terminus assumed
SMILES: CC[C@H](C)[C@H](N)C(=O)N[C@H](C(=O)N[C@@H](CC(C)C)C(=O)N[C@@H](CO)C(=O)N[C@@H](CC(C)C)C(=O)N[C@@H](CC(=O)O)C(=O)N[C@@H](C(=O)N1CCC[C@H]1C(=O)N[C@H](C(=O)NCC(=O)N[C@@H](CC(C)C)C(=O)N[C@@H](CCCCNC(=O)CC[C@H](NC(=O)CCCCCCCCCCCCCCC(=O)O)C(=O)O)C(=O)N[C@@H](CCC(N)=O)C(=O)N[C@H](C(=O)N[C@@H](CC(C)C)C(=O)N[C@@H](CC(C)C)C(=O)N[C@@H](CCCCN)C(=O)N[C@@H](CCC(N)=O)C(=O)N[C@@H](CCC(=O)O)C(=O)N[C@@H](CCCNC(=N)N)C(=O)N[C@@H](CCC(N)=O)C(=O)N[C@@H](CCCCN)C(=O)N[C@@H](CCCCN)C(=O)NC(C)(C)C(=O)N[C@@H](CCCNC(=N)N)C(=O)N[C@@H](CCC(N)=O)C(=O)N[C@@H](CCC(N)=O)C(=O)N[C@@H](C)C(=O)N[C@@H](CCC(=O)O)C(=O)N[C@H](C(=O)N[C@@H](CC(N)=O)C(=O)N[C@@H](CCCCN)C(=O)N[C@@H](CCCNC(=N)N)C(=O)N[C@H](C(=O)N[C@@H](CC(C)C)C(=O)N[C@@H](CCC(=O)O)C(=O)N[C@@H](CCCNC(=N)N)C(=O)N[C@H](C(N)=O)C(C)C)[C@@H](C)CC)[C@@H](C)O)[C@@H](C)CC)[C@@H](C)CC)C(C)C)C(C)C
In the case of B1, in assay [2], the CRF2 EC50 (cAMP, HTRF) is 0.34 nM. Further, the EC50 [nM], 0% HSA (cAMP, HTRF) in assay [3] stood at 0.34 nM.

B2: peptide of SEQ ID NO: 187 (peptide)
peptide: IVLSLD[dV]PIKLK([γGlu-C16 diacid])QILLKQERQK[Aib]QREQAEKNKQILAQV-NH2
modifications: N-terminus assumed
SMILES: CC[C@H](C)[C@H](N)C(=O)N[C@H](C(=O)N[C@@H](CC(C)C)C(=O)N[C@@H](CO)C(=O)N[C@@H](CC(C)C)C(=O)N[C@@H](CC(=O)O)C(=O)N[C@@H](C(=O)N1CCC[C@H]1C(=O)N[C@H](C(=O)N[C@@H](CCCCN)C(=O)N[C@@H](CC(C)C)C(=O)N[C@@H](CCCCNC(=O)CC[C@H](NC(=O)CCCCCCCCCCCCCCC(=O)O)C(=O)O)C(=O)N[C@@H](CCC(N)=O)C(=O)N[C@H](C(=O)N[C@@H](CC(C)C)C(=O)N[C@@H](CC(C)C)C(=O)N[C@@H](CCCCN)C(=O)N[C@@H](CCC(N)=O)C(=O)N[C@@H](CCC(=O)O)C(=O)N[C@@H](CCCNC(=N)N)C(=O)N[C@@H](CCC(N)=O)C(=O)N[C@@H](CCCCN)C(=O)NC(C)(C)C(=O)N[C@@H](CCC(N)=O)C(=O)N[C@@H](CCCNC(=N)N)C(=O)N[C@@H](CCC(=O)O)C(=O)N[C@@H](CCC(N)=O)C(=O)N[C@@H](C)C(=O)N[C@@H](CCC(=O)O)C(=O)N[C@@H](CCCCN)C(=O)N[C@@H](CC(N)=O)C(=O)N[C@@H](CCCCN)C(=O)N[C@@H](CCC(N)=O)C(=O)N[C@H](C(=O)N[C@@H](CC(C)C)C(=O)N[C@@H](C)C(=O)N[C@@H](CCC(N)=O)C(=O)N[C@H](C(N)=O)C(C)C)[C@@H](C)CC)[C@@H](C)CC)[C@@H](C)CC)C(C)C)C(C)C
B2 had a CRF2 EC50 (cAMP, HTRF) in assay [2] of 0.44 nM. The molecule also yielded an EC50 [nM], 0% HSA (cAMP, HTRF) in assay [3] of 0.44 nM.

B3: peptide of SEQ ID NO: 189 (peptide)
peptide: IVLSLD[dV]PIKLK([γGlu-C16 diacid])QILLKQERQKK[Aib]RQKAEKNKQILAQV-NH2
modifications: N-terminus assumed
SMILES: CC[C@H](C)[C@H](N)C(=O)N[C@H](C(=O)N[C@@H](CC(C)C)C(=O)N[C@@H](CO)C(=O)N[C@@H](CC(C)C)C(=O)N[C@@H](CC(=O)O)C(=O)N[C@@H](C(=O)N1CCC[C@H]1C(=O)N[C@H](C(=O)N[C@@H](CCCCN)C(=O)N[C@@H](CC(C)C)C(=O)N[C@@H](CCCCNC(=O)CC[C@H](NC(=O)CCCCCCCCCCCCCCC(=O)O)C(=O)O)C(=O)N[C@@H](CCC(N)=O)C(=O)N[C@H](C(=O)N[C@@H](CC(C)C)C(=O)N[C@@H](CC(C)C)C(=O)N[C@@H](CCCCN)C(=O)N[C@@H](CCC(N)=O)C(=O)N[C@@H](CCC(=O)O)C(=O)N[C@@H](CCCNC(=N)N)C(=O)N[C@@H](CCC(N)=O)C(=O)N[C@@H](CCCCN)C(=O)N[C@@H](CCCCN)C(=O)NC(C)(C)C(=O)N[C@@H](CCCNC(=N)N)C(=O)N[C@@H](CCC(N)=O)C(=O)N[C@@H](CCCCN)C(=O)N[C@@H](C)C(=O)N[C@@H](CCC(=O)O)C(=O)N[C@@H](CCCCN)C(=O)N[C@@H](CC(N)=O)C(=O)N[C@@H](CCCCN)C(=O)N[C@@H](CCC(N)=O)C(=O)N[C@H](C(=O)N[C@@H](CC(C)C)C(=O)N[C@@H](C)C(=O)N[C@@H](CCC(N)=O)C(=O)N[C@H](C(N)=O)C(C)C)[C@@H](C)CC)[C@@H](C)CC)[C@@H](C)CC)C(C)C)C(C)C
As to B3, the CRF2 EC50 (cAMP, HTRF) in assay [2] was 3.49 nM. The same molecule showed an EC50 [nM], 0% HSA (cAMP, HTRF) in assay [3] of 3.49 nM.

B4: peptide of SEQ ID NO: 190 (peptide)
peptide: IVLSLD[dV]PIKLK([γGlu-C16 diacid])QILLKQERQKKQREQAEKNKQILEQV-NH2
modifications: N-terminus assumed
SMILES: CC[C@H](C)[C@H](N)C(=O)N[C@H](C(=O)N[C@@H](CC(C)C)C(=O)N[C@@H](CO)C(=O)N[C@@H](CC(C)C)C(=O)N[C@@H](CC(=O)O)C(=O)N[C@@H](C(=O)N1CCC[C@H]1C(=O)N[C@H](C(=O)N[C@@H](CCCCN)C(=O)N[C@@H](CC(C)C)C(=O)N[C@@H](CCCCNC(=O)CC[C@H](NC(=O)CCCCCCCCCCCCCCC(=O)O)C(=O)O)C(=O)N[C@@H](CCC(N)=O)C(=O)N[C@H](C(=O)N[C@@H](CC(C)C)C(=O)N[C@@H](CC(C)C)C(=O)N[C@@H](CCCCN)C(=O)N[C@@H](CCC(N)=O)C(=O)N[C@@H](CCC(=O)O)C(=O)N[C@@H](CCCNC(=N)N)C(=O)N[C@@H](CCC(N)=O)C(=O)N[C@@H](CCCCN)C(=O)N[C@@H](CCCCN)C(=O)N[C@@H](CCC(N)=O)C(=O)N[C@@H](CCCNC(=N)N)C(=O)N[C@@H](CCC(=O)O)C(=O)N[C@@H](CCC(N)=O)C(=O)N[C@@H](C)C(=O)N[C@@H](CCC(=O)O)C(=O)N[C@@H](CCCCN)C(=O)N[C@@H](CC(N)=O)C(=O)N[C@@H](CCCCN)C(=O)N[C@@H](CCC(N)=O)C(=O)N[C@H](C(=O)N[C@@H](CC(C)C)C(=O)N[C@@H](CCC(=O)O)C(=O)N[C@@H](CCC(N)=O)C(=O)N[C@H](C(N)=O)C(C)C)[C@@H](C)CC)[C@@H](C)CC)[C@@H](C)CC)C(C)C)C(C)C
B4 gave a CRF2 EC50 (cAMP, HTRF) in assay [2] of 2.47 nM. The molecule also displayed an EC50 [nM], 0% HSA (cAMP, HTRF) in assay [3] of 2.47 nM.

B5: peptide of SEQ ID NO: 193 (peptide)
peptide: IVLSLD[dV]PIGLK([γGlu-C16 diacid])QILLKQERQKK[Aib]REQAETNKRILERV-NH2
modifications: N-terminus assumed
SMILES: CC[C@H](C)[C@H](N)C(=O)N[C@H](C(=O)N[C@@H](CC(C)C)C(=O)N[C@@H](CO)C(=O)N[C@@H](CC(C)C)C(=O)N[C@@H](CC(=O)O)C(=O)N[C@@H](C(=O)N1CCC[C@H]1C(=O)N[C@H](C(=O)NCC(=O)N[C@@H](CC(C)C)C(=O)N[C@@H](CCCCNC(=O)CC[C@H](NC(=O)CCCCCCCCCCCCCCC(=O)O)C(=O)O)C(=O)N[C@@H](CCC(N)=O)C(=O)N[C@H](C(=O)N[C@@H](CC(C)C)C(=O)N[C@@H](CC(C)C)C(=O)N[C@@H](CCCCN)C(=O)N[C@@H](CCC(N)=O)C(=O)N[C@@H](CCC(=O)O)C(=O)N[C@@H](CCCNC(=N)N)C(=O)N[C@@H](CCC(N)=O)C(=O)N[C@@H](CCCCN)C(=O)N[C@@H](CCCCN)C(=O)NC(C)(C)C(=O)N[C@@H](CCCNC(=N)N)C(=O)N[C@@H](CCC(=O)O)C(=O)N[C@@H](CCC(N)=O)C(=O)N[C@@H](C)C(=O)N[C@@H](CCC(=O)O)C(=O)N[C@H](C(=O)N[C@@H](CC(N)=O)C(=O)N[C@@H](CCCCN)C(=O)N[C@@H](CCCNC(=N)N)C(=O)N[C@H](C(=O)N[C@@H](CC(C)C)C(=O)N[C@@H](CCC(=O)O)C(=O)N[C@@H](CCCNC(=N)N)C(=O)N[C@H](C(N)=O)C(C)C)[C@@H](C)CC)[C@@H](C)O)[C@@H](C)CC)[C@@H](C)CC)C(C)C)C(C)C
On to B5, for which the CRF2 EC50 (cAMP, HTRF) in assay [2] turned out to be 0.82 nM. In assay [3], this molecule displayed an EC50 [nM], 0% HSA (cAMP, HTRF) of 0.82 nM.
